Results: article PMC11614891, “Accurate de novo design of heterochiral protein–protein interactions” (Cell Research, 2024)
Values joined by “and” are separate entries in the source; they are usually repeats but may differ in a detail not shown here. Equal entries are not always repeated. Square brackets hold non-standard residues; d marks the D form. Ends that are not written are not given here.

T1: D-TrkA (human, all residues D-amino acids (glycine achiral); biotin on the N-terminus; C-terminal amide)
T1 construct: also called mirror image of the D5 domain of human TrkA
T1 chain: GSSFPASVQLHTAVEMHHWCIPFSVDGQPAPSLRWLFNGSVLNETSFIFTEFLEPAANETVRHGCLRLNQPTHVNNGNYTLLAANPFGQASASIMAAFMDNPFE

T2: L-TrkA (human, biotinylated for BLI (site not stated))
T2 construct: also called D5 domain of human tropomyosin receptor kinase A
T2 chain: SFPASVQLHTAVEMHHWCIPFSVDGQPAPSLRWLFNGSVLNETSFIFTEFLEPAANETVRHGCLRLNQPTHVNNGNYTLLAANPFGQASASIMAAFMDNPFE

B1: L-57445_(D-TrkA) (designed binder)
chain: STEELVEELLELARKDPQEARKLVEEIVKELGLSPERRFELQLAIVLAQRDPELARRILERALNH
notes: source: E. coli Lemo21(DE3), purified (Ni Sepharose, SEC)
B2: D-57445-evo_(L-TrkA) (designed binder)
chain: [dS][dT][dQ][dE][dL][dV][dE][dE][dL][dL][dE][dL][dV][dR][dK][dD][dL][dE][dE][dA][dR][dK][dL][dA][dK][dE][dI][dV][dK][dE][dL]G[dL][dS][dP][dE][dL][dR][dF][dF][dL][dQ][dL][dA][dI][dA][dL][dA][dQ][dR][dD][dP][dE][dV][dA][dR][dR][dI][dL][dE][dR][dA][dL][dN][dL]
notes: source: chemically synthesized, folded
B3: L-25367-evo_(D-IL-6) (designed binder)
chain: GEEEVIEYLTREFKDDPELVRLLREAIEGLLKAGEDPEIVEMLIESLIHITGNPRVAVKLAKEYA
notes: 25367-evo, evolved from design 25367 by directed evolution; the methods name only the three parents
B4: L-Pep-1 (peptide)
peptide: DEHELLETAARWFYEIAKRA
modifications: also: biotinylated (site not given here)
notes: artificial amphipathic alpha-helical peptide
B5: D-19437_(L-Pep-1) (designed binder)
chain: G[dS][dL][dP][dV][dE][dK][dI][dI][dR][dE][dA][dK][dK][dI][dL][dD][dE][dL][dL][dK][dR]G[dL][dI][dD][dP][dE][dL][dA][dR][dI][dA][dR][dE][dV][dL][dE][dR][dA][dR][dK][dL]G[dN][dE][dE][dA][dA][dR][dF][dV][dL][dE][dL][dI][dE][dR][dL][dR][dR][dE][dL][dS]G[dS]G
notes: source: chemically synthesized (Fmoc SPPS), folded by dialysis, purified by SEC
B6: D-25367-evo_(L-IL-6) (designed binder)
chain: G[dE][dE][dE][dV][dI][dE][dY][dL][dT][dR][dE][dF][dK][dD][dD][dP][dE][dL][dV][dR][dL][dL][dR][dE][dA][dI][dE]G[dL][dL][dK][dA]G[dE][dD][dP][dE][dI][dV][dE][dM][dL][dI][dE][dS][dL][dI][dH][dI][dT]G[dN][dP][dR][dV][dA][dV][dK][dL][dA][dK][dE][dY][dA]
notes: D-protein form of 25367-evo; source: chemically synthesized, folded
B7: L-25367_(D-IL-6) (designed binder)
chain: GEEEVKEYLTRKFKDDPELVRLLREAIEVLLKAGEDPELVLSLIESLIHITGDPRAAVKLAKEFG
notes: as for B1
B8: D-25367_(L-IL-6) (designed binder)
chain: G[dE][dE][dE][dV][dK][dE][dY][dL][dT][dR][dK][dF][dK][dD][dD][dP][dE][dL][dV][dR][dL][dL][dR][dE][dA][dI][dE][dV][dL][dL][dK][dA]G[dE][dD][dP][dE][dL][dV][dL][dS][dL][dI][dE][dS][dL][dI][dH][dI][dT]G[dD][dP][dR][dA][dA][dV][dK][dL][dA][dK][dE][dF]G
notes: D-protein form of design 25367; source: chemically synthesized (Fmoc SPPS), folded by dialysis, purified by SEC
B9: L-57445-evo_(D-TrkA) (designed binder)
chain: STQELVEELLELVRKDLEEARKLAKEIVKELGLSPELRFFLQLAIALAQRDPEVARRILERALNL
notes: the methods name only the three parents
B10: D-57445_(L-TrkA) (designed binder)
chain: [dS][dT][dE][dE][dL][dV][dE][dE][dL][dL][dE][dL][dA][dR][dK][dD][dP][dQ][dE][dA][dR][dK][dL][dV][dE][dE][dI][dV][dK][dE][dL]G[dL][dS][dP][dE][dR][dR][dF][dE][dL][dQ][dL][dA][dI][dV][dL][dA][dQ][dR][dD][dP][dE][dL][dA][dR][dR][dI][dL][dE][dR][dA][dL][dN][dH]
notes: as for B5

Key:
D-TrkA [1] = target: T1, D-TrkA; experiment: BLI; Octet RED96e; biotinylated target immobilised on streptavidin biosensors, binder in solution; PBS pH 7.4 with 0.02% TWEEN; 25 °C; global fit; conditions: both partners purified
L-TrkA [2] = target: T2, L-TrkA; experiment: MST; Nanotemper Monolith NT.115; 50 nM L-TrkA, D-57445-evo in 16 two-fold dilutions from 122 pM to 40 uM; PBS with 0.05% Tween20, pH 7.4; MST power 40%; conditions: both partners purified
L-TrkA [3] = target: T2, L-TrkA; experiment: BLI; Octet RED96e; biotinylated target immobilised on streptavidin biosensors, binder in solution; PBS pH 7.4 with 0.02% TWEEN; 25 °C; global fit; conditions: both partners purified
D-IL-6 = target: T3, D-IL-6 (human, all residues D-amino acids (glycine achiral); biotin on the N-terminus; C-terminal amide); experiment: as above; conditions: both partners purified
T3 construct: additional methionine at the N-terminus (Met1 of the chain of 186 residues); human interleukin-6, residues 28-212, made of D-amino acids; also called mirror image of human interleukin-6

D-19437_(L-Pep-1) = target: B5; experiment: ITC; MicroCal PEAQ-ITC, 19 injections; peptide titrated over the binder (L-19437 15 uM, D-Pep-1 150 uM); PBS pH 7.4; One Set of Sites mode; conditions: both partners purified
L-Pep-1 = target: B4; experiment: BLI; Octet RED96e; biotinylated target immobilised on streptavidin biosensors, binder in solution; PBS pH 7.4 with 0.02% TWEEN; 25 °C; global fit; conditions: both partners purified
[4] = target: the molecule itself; experiment: SEC; D-19437 alone on Superdex 75 Increase 10/300, compared with the mixture with L-Pep-1; fractions on SDS-PAGE, Coomassie blue
L-IL-6 = target: T4, L-IL-6 (human, biotinylated for BLI (site not stated)); experiment: BLI; Octet RED96e; biotinylated target immobilised on streptavidin biosensors, binder in solution; PBS pH 7.4 with 0.02% TWEEN; 25 °C; global fit; conditions: both partners purified
T4 construct: additional methionine at the N-terminus; human interleukin-6, residues 28-212; also called human interleukin-6

D-TrkA [5] = target: T1, D-TrkA; experiment: as above; conditions: both partners purified

T4 sequence (chain, as listed by the source): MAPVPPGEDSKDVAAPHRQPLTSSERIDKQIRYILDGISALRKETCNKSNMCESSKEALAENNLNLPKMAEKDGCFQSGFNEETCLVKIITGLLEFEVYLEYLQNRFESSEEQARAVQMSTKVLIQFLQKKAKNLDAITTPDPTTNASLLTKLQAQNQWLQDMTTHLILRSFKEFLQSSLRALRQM
Chain of D-19437_(L-Pep-1) (chain, as listed by the source): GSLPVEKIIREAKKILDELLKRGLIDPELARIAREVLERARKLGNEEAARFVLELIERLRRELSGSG

B1
Kd (D-TrkA [1]): 152 nM
koff (D-TrkA [1]): 0.0508 s⁻¹
kon (D-TrkA [1]): 334000 M⁻¹ s⁻¹

B2
Kd (L-TrkA [2]): 1.19 nM
Kd (L-TrkA [3]): 1.73 nM and 1.8 nM
koff (L-TrkA [3]): 0.000248 s⁻¹ and 0.000243 s⁻¹
kon (L-TrkA [3]): 144000 M⁻¹ s⁻¹ and 135000 M⁻¹ s⁻¹

B3
Kd (D-IL-6): 0.724 nM and 1.68 nM
koff (D-IL-6): 0.000185 s⁻¹ and 0.00046 s⁻¹
kon (D-IL-6): 256000 M⁻¹ s⁻¹ and 275000 M⁻¹ s⁻¹

B4
Kd (D-19437_(L-Pep-1)): 12.4 ± 2.1 nM
stoichiometry N (D-19437_(L-Pep-1)): 0.932 ± 0.003 sites

B5
Kd (L-Pep-1): 59.6 nM and 37.6 nM
koff (L-Pep-1): 0.0162 s⁻¹ and 0.0122 s⁻¹
kon (L-Pep-1): 272000 M⁻¹ s⁻¹ and 324000 M⁻¹ s⁻¹
stoichiometry N [4]: 2

B6
Kd (L-IL-6): 3.03 nM and 8.75 nM
koff (L-IL-6): 0.000328 s⁻¹ and 0.000199 s⁻¹

B7
Kd (D-IL-6): 25.1 nM and 11.8 nM
koff (D-IL-6): 0.00758 s⁻¹
kon (D-IL-6): 302000 M⁻¹ s⁻¹ and 644000 M⁻¹ s⁻¹

B8
Kd (L-IL-6): 28.3 nM and 48.3 nM
koff (L-IL-6): 0.0111 s⁻¹ and 0.0102 s⁻¹
kon (L-IL-6): 391000 M⁻¹ s⁻¹ and 211000 M⁻¹ s⁻¹

B9
Kd (D-TrkA [5]): 7.84 ± 0.02 nM
Kd (D-TrkA [1]): 7.85 nM and 10.9 nM
koff (D-TrkA [1]): 0.000297 s⁻¹ and 0.000322 s⁻¹
kon (D-TrkA [1]): 37800 M⁻¹ s⁻¹ and 29400 M⁻¹ s⁻¹

B10
Kd (L-TrkA [3]): 151 nM
koff (L-TrkA [3]): 0.0351 s⁻¹
kon (L-TrkA [3]): 232000 M⁻¹ s⁻¹
